Results from PMC6297355 (2018).

B1: BAG3^WT (recombinant) (natural protein)
chain: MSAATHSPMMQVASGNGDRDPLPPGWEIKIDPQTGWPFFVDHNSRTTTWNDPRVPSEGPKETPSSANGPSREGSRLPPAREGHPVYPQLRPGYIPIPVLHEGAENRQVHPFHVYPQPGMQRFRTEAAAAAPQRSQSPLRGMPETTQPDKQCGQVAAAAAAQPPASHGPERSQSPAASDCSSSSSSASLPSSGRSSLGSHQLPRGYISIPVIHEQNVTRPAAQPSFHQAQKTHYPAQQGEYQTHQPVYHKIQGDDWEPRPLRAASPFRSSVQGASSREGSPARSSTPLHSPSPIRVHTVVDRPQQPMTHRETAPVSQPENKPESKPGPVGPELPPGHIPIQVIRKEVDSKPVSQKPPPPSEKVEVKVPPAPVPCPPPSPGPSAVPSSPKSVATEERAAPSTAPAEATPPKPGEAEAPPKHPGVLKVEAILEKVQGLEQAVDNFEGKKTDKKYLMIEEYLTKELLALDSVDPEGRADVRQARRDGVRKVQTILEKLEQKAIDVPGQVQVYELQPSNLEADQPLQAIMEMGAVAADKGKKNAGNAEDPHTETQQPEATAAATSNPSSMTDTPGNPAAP
B2: BAG3 with complete deletion of the IPV2 motif (recombinant) (natural protein)
chain: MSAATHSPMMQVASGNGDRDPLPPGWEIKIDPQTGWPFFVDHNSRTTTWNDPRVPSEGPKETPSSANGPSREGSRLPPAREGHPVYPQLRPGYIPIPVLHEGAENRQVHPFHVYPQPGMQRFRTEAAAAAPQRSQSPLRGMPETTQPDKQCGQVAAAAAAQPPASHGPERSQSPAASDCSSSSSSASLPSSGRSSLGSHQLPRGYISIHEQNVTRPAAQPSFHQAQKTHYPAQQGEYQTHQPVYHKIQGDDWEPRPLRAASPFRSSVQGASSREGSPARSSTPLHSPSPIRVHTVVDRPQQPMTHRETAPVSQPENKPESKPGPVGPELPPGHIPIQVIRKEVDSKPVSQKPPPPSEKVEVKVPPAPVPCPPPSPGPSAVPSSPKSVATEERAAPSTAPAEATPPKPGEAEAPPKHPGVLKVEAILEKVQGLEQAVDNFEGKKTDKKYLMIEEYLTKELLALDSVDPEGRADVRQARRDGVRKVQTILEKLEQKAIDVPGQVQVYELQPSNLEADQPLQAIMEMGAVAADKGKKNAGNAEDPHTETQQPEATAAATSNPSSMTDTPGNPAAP
B3: BAG3 with deletion of both IPV motifs (recombinant) (natural protein)
chain: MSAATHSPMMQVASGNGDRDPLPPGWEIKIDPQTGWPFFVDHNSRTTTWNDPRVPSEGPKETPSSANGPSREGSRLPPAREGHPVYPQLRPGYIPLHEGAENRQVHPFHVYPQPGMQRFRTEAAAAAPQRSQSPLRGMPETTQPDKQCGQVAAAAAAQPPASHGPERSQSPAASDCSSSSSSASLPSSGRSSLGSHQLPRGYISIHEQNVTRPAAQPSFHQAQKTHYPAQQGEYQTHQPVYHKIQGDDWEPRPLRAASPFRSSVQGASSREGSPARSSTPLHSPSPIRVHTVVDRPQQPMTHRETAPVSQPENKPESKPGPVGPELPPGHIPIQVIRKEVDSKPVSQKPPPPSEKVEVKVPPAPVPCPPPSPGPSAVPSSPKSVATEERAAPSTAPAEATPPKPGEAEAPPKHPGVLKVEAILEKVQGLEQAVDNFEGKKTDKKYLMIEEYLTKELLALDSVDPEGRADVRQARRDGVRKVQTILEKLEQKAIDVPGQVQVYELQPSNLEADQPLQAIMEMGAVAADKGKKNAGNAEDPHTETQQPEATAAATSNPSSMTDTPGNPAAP

Biological target: HSPB1c/Hsp27c (model human HSPB fragment) (human, UniProt P04792 80-176)
Test: ITC

Chain of HSPB1c/Hsp27c (model human HSPB fragment) (P04792 80-176): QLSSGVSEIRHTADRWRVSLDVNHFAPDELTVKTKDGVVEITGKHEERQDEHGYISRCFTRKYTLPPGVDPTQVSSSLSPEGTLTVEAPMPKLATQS

Kd [nM] | Binder
490 | B1
2000 | B2
> 100000 | B3
